The results in this text go back to article PMC7018833, “Siroheme synthase orients substrates for dehydrogenase and chelatase activities in a common active site” (Nature Communications, 2020).

The chains are these.
B1: S128A S. enterica siroheme synthase (CysG) (enzyme)
chain: MDHLPIFCQLRDRDCLIVGGGDVAERKARLLLEAGARLTVNALTFIPQFTVWANEGMLTLVEGPFDETLLDSCWLAIAATDDDTVNQRVSDAAESRRIFCNVVDAPKAASFIMPSIIDRSPLMVAVSAGGTSPVLARLLREKLESLLPQHLGQVARYAGQLRARVKKQFATMGERRRFWEKFFVNDRLAQSLANADEKAVNATTERLFSEPLDHRGEVVLVGAGPGDAGLLTLKGLQQIQQADIVVYDRLVSDDIMNLVRRDADRVFVGKRAGYHCVPQEEINQILLREAQKGKRVVRLKGGDPFIFGRGGEELETLCHAGIPFSVVPGITAASGCSAYSGIPLTHRDYAQSVRLVTGHLKTGGELDWENLAAEKQTLVFYMGLNQAATIQEKLIAFGMQADMPVALVENGTSVKQRVVHGVLTQLGELAQQVESPALIIVGRVVALRDKLNWFSNH
notes: also called S128A-CysG; source: E. coli LMG194 (pBAD vector), purified (Ni-NTA, anion-exchange, size exclusion chromatography)
B2: D104N/S128A CysG (enzyme)
chain: B1 chain with D104N
notes: source: E. coli LMG194 (pBAD vector), purified (Ni-NTA, anion-exchange, size exclusion chromatography)
B3: D262N/S128A CysG (enzyme)
chain: B1 chain with D262N
notes: as for B2
B4: P133H/S128A CysG (enzyme)
chain: B1 chain with P133H
notes: as for B2
B5: D262A/S128A CysG (enzyme)
chain: B1 chain with D262A
notes: as for B2
B6: D104A/S128A CysG (enzyme)
chain: B1 chain with D104A
notes: as for B2
B7: P133G/S128A CysG (enzyme)
chain: B1 chain with P133G
notes: as for B2
B8: R261A/S128A CysG (enzyme)
chain: B1 chain with R261A
notes: as for B2
B9: R260A/S128A CysG (enzyme)
chain: B1 chain with R260A
notes: as for B2

Substitutions are numbered along the chain they refer to. Names may count otherwise.

This data set concerns the molecule itself. As to the kind of experiment: crystal structure.
As to B1, the binding result is recorded as “binds”.

With B2, the binding result is on record as “binds”.

For B3, the binding result is listed as “binds”.

Take B4: the binding result is reported as “binds”.

Consider B5, for which the binding result is recorded as “binds”.

For B6, the binding result is listed as “binds”.

With B7, the binding result is “binds”.

Take B8: the binding result is “binds”.

On to B9, for which the binding result was “binds”.
